Laboratory results as given in US20210095014A1 (NGM BIOPHARMACEUTICALS, published 2021).

T1: NusA-hANGPTL8 fusion protein (human, UniProt Q6UXH0 22-198)
T1 construct: Expressed in E. coli BL21 and captured on a chelating Sepharose column; also called hANGPTL8 (NusA-hANGPTL8 fusion protein); not shown: bacterial NusA protein, fusion partner
T1 sequence: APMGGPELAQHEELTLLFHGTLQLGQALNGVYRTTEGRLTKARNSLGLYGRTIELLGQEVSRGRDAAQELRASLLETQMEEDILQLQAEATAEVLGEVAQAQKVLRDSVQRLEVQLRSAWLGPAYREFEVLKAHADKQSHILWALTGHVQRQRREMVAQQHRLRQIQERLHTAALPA

T2: SE1 peptide of cynomolgus monkey ANGPTL8 (amino acids 25-60) (cynomolgus monkey)
T2 construct: also called cSE1; cSE1 peptide
T2 peptide: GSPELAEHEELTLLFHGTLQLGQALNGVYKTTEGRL

T3: SE1 peptide of human ANGPTL8 (amino acids 25-60) (human)
T3 construct: also called hSE1; hSE1 peptide
T3 peptide: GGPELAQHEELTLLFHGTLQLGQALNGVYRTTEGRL


Tests used:
[1] = molecular target: T1, NusA-hANGPTL8 fusion protein; test: BIACORE (SPR), antibody from hybridoma supernatant captured by anti-mouse Fc, NusA-hANGPTL8 injected, 25 C
Experimental: (§1) The binding affinities of antibodies 1E5, 1A8, and 1E9 to human ANGPTL8 were measured using a BIACORE system (GE Healthcare LifeSciences). Briefly, anti-mouse Fc antibody (Sigma-Aldrich) was immobilized on all four flow cells of a CM5 chip using amine coupling reagents (GE Healthcare LifeSciences). Antibody from hybridoma supernatants were captured on flow cells 2, 3, and 4 using flow cell 1 as a reference. The SE1 peptide of human ANGPTL8 (hSE1; SEQ ID NO:6), a corresponding SE1 peptide of cynomolgus monkey ANGPTL8 (cSE1; SEQ ID NO:67), or human ANGPTL8 was injected at a flow rate of 50 μL/min at 25° C. Kinetic data were collected over time and fit using the simultaneous global fit equation to yield affinity constants (KD values) for each antibody.
(§2) Assay results are shown in Table 4 and the BIACORE result for 1E5 binding to hANGPTL8 (NusA-hANGPTL8 fusion protein) is shown in FIG. 4.

[2] = molecular target: T2, SE1 peptide of cynomolgus monkey …; test: BIACORE (SPR), antibody from hybridoma supernatant captured by anti-mouse Fc, peptide injected, 25 C
Experimental: as §1, §2

[3] = molecular target: T3, SE1 peptide of human ANGPTL8 (amino …); test: as above
Experimental: as §1, §2

[4] = molecular target: T3, SE1 peptide of human ANGPTL8 (amino …); test: BIACORE (SPR); chimeric 1E5 (murine variable regions, human Fc)
[5] = molecular target: T3, SE1 peptide of human ANGPTL8 (amino …); test: BIACORE (SPR); humanized antibody Hz1E5

Kd [1] | Kd [2] | Kd [3] | Kd [4] | Kd [5] | Binder
0.44 nM | 0.67 nM | 0.41 nM |  |  | anti-ANGPTL8 antibody 1E5 (antibody, V domains shown, Mouse monoclonal antibody, tested from hybridoma supernatant and captured by anti-mouse Fc; also called parental 1E5 from hybridoma) VH: QVQLQQSGAELVKPGTSVRLSCKASGYTFTDYTIHWVKLRSGQGLEWIGWFYPGSDNIKYNAKFKDKATLTADKSSSTVYMDLGRLTSEDSAVYFCARHEAFSYYDVAWFAYWGQGTLVTVSA VL: DVVMTQTPLSLPVSLGDQASISCRSSQSLVHSNGNTYLHWYLQKPGQSPKLLIYTVSNRFSGVPDRFSGSGSGSDFTLNFSRVEAEDLGVYFCSQTTHFPYTFGGGTKLEIK
 |  |  | 0.35 nM |  | chimeric 1E5 antibody (antibody, V domains shown, Contains 'the murine variable regions of 1E5 and a human Fc region'; also called chimeric antibody 1E5) VH: QVQLQQSGAELVKPGTSVRLSCKASGYTFTDYTIHWVKLRSGQGLEWIGWFYPGSDNIKYNAKFKDKATLTADKSSSTVYMDLGRLTSEDSAVYFCARHEAFSYYDVAWFAYWGQGTLVTVSA VL: DVVMTQTPLSLPVSLGDQASISCRSSQSLVHSNGNTYLHWYLQKPGQSPKLLIYTVSNRFSGVPDRFSGSGSGSDFTLNFSRVEAEDLGVYFCSQTTHFPYTFGGGTKLEIK
2.1 nM | 1.8 nM | 0.92 nM |  |  | anti-ANGPTL8 antibody 1E9 (antibody, V domains shown, Mouse monoclonal antibody, tested from hybridoma supernatant and captured by anti-mouse Fc) VH: QVQLQQSGTELVKPGASVKLSCKASGYTFTDYTIHWVKQRSGQGLEWIGWFYPGSDNIKFNAKFRDKATLTADKSSSTVYMELSRLTSEDSAVYFCARHEAFYVYDVAWFANWGQGTLVTVST VL: DVVMTQTPLSLPVSLGDQASISCRSSQSLVHSNGNTYLHWFLQKPGQSPNLLIYTVSNRFSGVPDRFSGSGSGTDFTLKISRVEAGDLGVYFCSQSTHFPYTFGGGTKLEIK
2.5 nM | 1.04 nM | 0.8 nM |  |  | anti-ANGPTL8 antibody 1A8 (antibody, V domains shown, Mouse monoclonal antibody, tested from hybridoma supernatant and captured by anti-mouse Fc) VH: QVQLQQSGAELVKPGASVKLSCKASGYTFTDYTIHWVKQRSGQGLEWIGWFYPGSDNIKYNEKFKDKATLTADKSSSIVYMELSRLTSEDSAVYFCARHEAYYVYDVAWFAYWGQGTLVTVSA VL: DVVMTQTPLSLPVSLGDQASISCSSSQSLVHSNGNTFLHWFLQRPGQSPKLLIYTVSNRFSGVPDRFSGSGSGTDFTLKISRVEAEDLGVYFCSQSTHFPYTFGGGTTLEIK
 |  |  |  | 0.9 nM | humanized anti-ANGPTL8 antibody Hz1E5 (antibody, human IgG1, kappa, V domains shown, also called Hz1E5.A1) VH: EVQLVQSGAEVKKPGSSVKVSCKASGYTFTDYTIHWVRQAPGQGLEWMGWFYPGSDNIKYNAKFKDRATLTADKSTSTAYMELSSLRSEDTAVYYCARHEAFSYYDVAWFAYWGQGTLVTVSS VL: DVVMTQTPLSLPVTPGEPASISCRSSQSLVHSNGNTYLHWYLQKPGQSPQLLIYTVSNRFSGVPDRFSGSGSGSDFTLKISRVEAEDVGVYFCSQTTHFPYTFGQGTKVEIKR
